Data: paper doi:10.1101/2022.05.10.491349

Experiments:
Experiment in all cases: SEC
[1] = target: SARS-CoV-2 Nsp15 A93S (SARS-CoV-2)
[2] = target: SARS-CoV-2 Nsp15 D133Y (SARS-CoV-2)
[3] = target: SARS-CoV-2 Nsp15 D220Y (SARS-CoV-2)
[4] = target: SARS-CoV-2 Nsp15 G18E (SARS-CoV-2)
[5] = target: SARS-CoV-2 Nsp15 G18R (SARS-CoV-2)
[6] = target: SARS-CoV-2 Nsp15 H235Y (SARS-CoV-2)
[7] = target: SARS-CoV-2 Nsp15 K13N (SARS-CoV-2)
[8] = target: SARS-CoV-2 Nsp15 K13R (SARS-CoV-2)
[9] = target: SARS-CoV-2 Nsp15 K260R (SARS-CoV-2)
[10] = target: SARS-CoV-2 Nsp15 K290N (SARS-CoV-2)
[11] = target: SARS-CoV-2 Nsp15 L163F (SARS-CoV-2)
[12] = target: SARS-CoV-2 Nsp15 P206S (SARS-CoV-2)
[13] = target: SARS-CoV-2 Nsp15 R207S (SARS-CoV-2)
[14] = target: SARS-CoV-2 Nsp15 T34I (SARS-CoV-2)
[15] = target: SARS-CoV-2 Nsp15 T115A (SARS-CoV-2)
[16] = target: SARS-CoV-2 Nsp15 V128F (SARS-CoV-2)
[17] = target: SARS-CoV-2 Nsp15 W333C (SARS-CoV-2)

SARS-CoV-2 Nsp15 A93S (enzyme)
Hex/Mono Ratio [1]: 0.49

SARS-CoV-2 Nsp15 D133Y (enzyme)
Hex/Mono Ratio [2]: 0.48

SARS-CoV-2 Nsp15 D220Y (enzyme)
Hex/Mono Ratio [3]: 0.63

SARS-CoV-2 Nsp15 G18E (enzyme)
Hex/Mono Ratio [4]: 0.56

SARS-CoV-2 Nsp15 G18R (enzyme)
Hex/Mono Ratio [5]: 0.88

SARS-CoV-2 Nsp15 H235Y (enzyme)
Hex/Mono Ratio [6]: 1.61

SARS-CoV-2 Nsp15 K13N (enzyme)
Hex/Mono Ratio [7]: 0.63

SARS-CoV-2 Nsp15 K13R (enzyme)
Hex/Mono Ratio [8]: 1.18

SARS-CoV-2 Nsp15 K260R (enzyme)
Hex/Mono Ratio [9]: 1.8

SARS-CoV-2 Nsp15 K290N (enzyme)
Hex/Mono Ratio [10]: 2.12

SARS-CoV-2 Nsp15 L163F (enzyme)
Hex/Mono Ratio [11]: 0.23

SARS-CoV-2 Nsp15 P206S (enzyme)
Hex/Mono Ratio [12]: 2.49

SARS-CoV-2 Nsp15 R207S (enzyme)
Hex/Mono Ratio [13]: 0.14

SARS-CoV-2 Nsp15 T34I (enzyme)
Hex/Mono Ratio [14]: 1.01

SARS-CoV-2 Nsp15 T115A (enzyme)
Hex/Mono Ratio [15]: 0.55

SARS-CoV-2 Nsp15 V128F (enzyme)
Hex/Mono Ratio [16]: 0.5

SARS-CoV-2 Nsp15 W333C (enzyme)
Hex/Mono Ratio [17]: 0.77
